Numbering of substitutions follows the chain as printed.
Key:
VEGF (Example 4) [1] = biological target: T1, VEGF (Example 4) (UniProt P15692 27-191); assay: VEGF-KDR inhibition
T1 chain: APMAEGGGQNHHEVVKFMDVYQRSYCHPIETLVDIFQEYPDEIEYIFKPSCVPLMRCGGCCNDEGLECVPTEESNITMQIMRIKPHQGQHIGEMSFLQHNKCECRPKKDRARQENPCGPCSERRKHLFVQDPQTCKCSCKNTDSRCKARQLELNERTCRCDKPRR

VEGF (Example 4) [2] = biological target: T1, VEGF (Example 4); assay: binding
ErbB3 = ErbB3 (UniProt P21860 20-643); assay: binding
[3] = biological target: Hepatocyte Growth Factor (HGF), human (human, UniProt P14210 32-728); assay: ELISA
Hepatocyte Growth Factor (HGF), human, sequence (P14210 32-728): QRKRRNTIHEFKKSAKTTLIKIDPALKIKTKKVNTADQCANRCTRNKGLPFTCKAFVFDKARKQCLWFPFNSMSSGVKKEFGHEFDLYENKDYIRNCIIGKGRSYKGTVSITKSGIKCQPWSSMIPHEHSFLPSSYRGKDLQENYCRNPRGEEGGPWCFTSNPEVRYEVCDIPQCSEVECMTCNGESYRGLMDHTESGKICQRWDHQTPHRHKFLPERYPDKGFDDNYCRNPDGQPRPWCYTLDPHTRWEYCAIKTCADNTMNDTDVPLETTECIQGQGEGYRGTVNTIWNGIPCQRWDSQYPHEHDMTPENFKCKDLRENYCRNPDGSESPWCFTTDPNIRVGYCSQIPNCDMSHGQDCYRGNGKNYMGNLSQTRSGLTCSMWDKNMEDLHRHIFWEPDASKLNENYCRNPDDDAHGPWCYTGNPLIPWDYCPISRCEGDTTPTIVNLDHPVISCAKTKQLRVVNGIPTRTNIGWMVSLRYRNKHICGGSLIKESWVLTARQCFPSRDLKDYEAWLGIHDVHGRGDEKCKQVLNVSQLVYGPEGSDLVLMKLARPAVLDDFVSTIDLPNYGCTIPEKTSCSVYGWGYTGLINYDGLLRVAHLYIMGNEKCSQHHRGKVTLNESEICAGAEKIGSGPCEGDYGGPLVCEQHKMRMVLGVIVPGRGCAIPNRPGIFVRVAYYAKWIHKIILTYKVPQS

[4] = biological target: T2, Placenta Growth Factor (PlGF), human (human, UniProt P49763 21-149); assay: ELISA
T2 chain: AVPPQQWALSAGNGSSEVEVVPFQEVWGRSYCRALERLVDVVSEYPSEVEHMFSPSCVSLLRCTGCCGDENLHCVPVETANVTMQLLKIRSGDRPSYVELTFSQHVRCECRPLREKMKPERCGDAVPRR

ErbB3, sequence (P21860 20-643): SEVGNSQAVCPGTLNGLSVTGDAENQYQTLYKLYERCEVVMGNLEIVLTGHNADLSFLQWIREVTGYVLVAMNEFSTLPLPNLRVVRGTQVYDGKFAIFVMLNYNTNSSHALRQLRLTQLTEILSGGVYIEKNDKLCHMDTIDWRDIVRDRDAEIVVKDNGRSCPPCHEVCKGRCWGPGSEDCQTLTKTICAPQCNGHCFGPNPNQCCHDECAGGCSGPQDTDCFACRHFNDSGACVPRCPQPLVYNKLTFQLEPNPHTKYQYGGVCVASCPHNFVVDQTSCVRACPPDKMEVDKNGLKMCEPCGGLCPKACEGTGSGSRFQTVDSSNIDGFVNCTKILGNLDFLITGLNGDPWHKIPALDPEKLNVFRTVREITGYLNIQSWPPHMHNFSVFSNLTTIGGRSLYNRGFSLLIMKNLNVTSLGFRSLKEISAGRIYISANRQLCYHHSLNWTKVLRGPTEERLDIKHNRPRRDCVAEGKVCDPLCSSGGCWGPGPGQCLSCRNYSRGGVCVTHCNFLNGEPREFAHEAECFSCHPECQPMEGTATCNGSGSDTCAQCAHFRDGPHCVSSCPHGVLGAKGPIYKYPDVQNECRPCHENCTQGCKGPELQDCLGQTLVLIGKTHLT

B1: 2 (antibody, V domains shown)
V domain 1: FQPVLHQPPAMSSALGTTIRLTCTLRNDHDIGVYSVYWYQQRPGHPPRFLLRYFSQSDKSQGPQVPPRFSGSKDVARNRGYLSISELQPEDEAMYYCAMGARSSVTHVFGSGTQLTVLS
V domain 2: QPVLHQPPAMSSALGTTIRLTCTLRNDHDIGVYSVYWYQQRPGHPPRFLLRYFSQSDKSQGPQVPPRFSGSKDVARNRGYLSISELQPEDEAMYYCAMGARSSVTHVFGSGTQLTVLS
IC50 (VEGF (Example 4) [1]): 0.391 nM
EC50 (VEGF (Example 4) [2]): 0.016 nM
EC50 (ErbB3): 0.051 nM

B2: 5 (antibody, V domains shown)
V domain 1: B1 V domain 1 with F1P
V domain 2: B1 V domain 2
IC50 (VEGF (Example 4) [1]): 0.409 nM
EC50 (VEGF (Example 4) [2]): 0.012 nM
EC50 (ErbB3): 0.058 nM

B3: 3 (antibody, V domains shown)
V domain 1: B1 V domain 1
V domain 2: B1 V domain 2
IC50 (VEGF (Example 4) [1]): 0.429 nM
EC50 (VEGF (Example 4) [2]): 0.015 nM
EC50 (ErbB3): 0.05 nM

B4: 6 (antibody, V domains shown)
V domain 1: B1 V domain 1 with F1P
V domain 2: B1 V domain 2
IC50 (VEGF (Example 4) [1]): 0.589 nM
EC50 (VEGF (Example 4) [2]): 0.012 nM
EC50 (ErbB3): 0.048 nM

B5: 4 (antibody, V domains shown)
V domain 1: B1 V domain 1
V domain 2: B1 V domain 2
IC50 (VEGF (Example 4) [1]): 0.449 nM
EC50 (VEGF (Example 4) [2]): 0.015 nM
EC50 (ErbB3): 0.046 nM

B6: 7 (antibody, V domains shown)
V domain 1: B1 V domain 1 with F1P
V domain 2: B1 V domain 2
IC50 (VEGF (Example 4) [1]): 0.362 nM
EC50 (VEGF (Example 4) [2]): 0.013 nM
EC50 (ErbB3): 0.037 nM

B7: HC 9/SLC 4 (antibody)
chain 1: GQGTLVTVSSASTKGPSVFQPVLHQPPAMSSALGTTIRLTCTLRNDHDIGVYSVYWYQQRPGHPPRFLLRYFSQSDKSQGPQVPPRFSGSKDVARNRGYLSISELQPEDEAMYYCAMGARSRCWPRGFQSKHNSVTHVFGSGTQLTVLSQPKATPSVTLFPPSSEELQANKATLVCLMNDFYPGILTVTWKADGTPITQGVEMTTPSKQSNNKYAASSYLSLTPEQWRSRRSYSCQVMHEGSTVEKTVAPAECS
chain 2: MSWAPVLLMLFVYCTGCGPQPVLHQPPAMSSALGTTIRLTCTLRNDHDIGVYSVYWYQQRPGHPPRFLLRYFSQSDKSQGPQVPPRFSGSKDVARNRGYLSISVTHVFGSGTQLTVLSQPKQVQLVQ
EC50 [3]: 0.063 nM
EC50 [4]: 0.164 nM

B8: HC 9/SLC 5 (antibody)
chain 1: B7 chain 1
chain 2: MSWAPVLLMLFVYCTGCGPQPVLHQPPAMSSALGTTIRLTCTLRNDHDIGVYSVYWYQQRPGHPPRFLLRYFSQSDKSQGPQVPPRFSGSKDVARNRGYLSISVTHVFGSGTQLTVLSQPKAQVQLVQ
EC50 [3]: 0.065 nM
EC50 [4]: 0.172 nM

B9: HC 4/SLC 8 (antibody)
chain 1: GQGTLVTVSSASTKQPVLHQPPAMSSALGTTIRLTCTLRNDHDIGVYSVYWYQQRPGHPPRFLLRYFSQSDKSQGPQVPPRFSGSKDVARNRGYLSISELQPEDEAMYYCAMGARSRCWPRGFQSKHNSVTHVFGSGTQLTVLSQPKATPSVTLFPPSSEELQANKATLVCLMNDFYPGILTVTWKADGTPITQGVEMTTPSKQSNNKYAASSYLSLTPEQWRSRRSYSCQVMHEGSTVEKTVAPAECS
chain 2: MSWAPVLLMLFVYCTGCGPQPVLHQPPAMSSALGTTIRLTCTLRNDHDIGVYSVYWYQQRPGHPPRFLLRYFSQSDKSQGPQVPPRFSGSKDVARNRGYLSISVTHVFGSGTQLTVLSQPKATPSQVQLVQ
EC50 [3]: 0.061 nM
EC50 [4]: 0.18 nM

B10: HC 7/SLC 2 (antibody)
chain 1: GQGTLVTVSSASTKGPSQPVLHQPPAMSSALGTTIRLTCTLRNDHDIGVYSVYWYQQRPGHPPRFLLRYFSQSDKSQGPQVPPRFSGSKDVARNRGYLSISELQPEDEAMYYCAMGARSRCWPRGFQSKHNSVTHVFGSGTQLTVLSQPKATPSVTLFPPSSEELQANKATLVCLMNDFYPGILTVTWKADGTPITQGVEMTTPSKQSNNKYAASSYLSLTPEQWRSRRSYSCQVMHEGSTVEKTVAPAECS
chain 2: MSWAPVLLMLFVYCTGCGPQPVLHQPPAMSSALGTTIRLTCTLRNDHDIGVYSVYWYQQRPGHPPRFLLRYFSQSDKSQGPQVPPRFSGSKDVARNRGYLSISVTHVFGSGTQLTVLSQQVQLVQ
EC50 [3]: 0.057 nM
EC50 [4]: 0.2 nM
